Measurements as given in paper PMC4453921, “Crystal structure of caspase recruiting domain (CARD) of apoptosis repressor with CARD (ARC) and its implication in inhibition of apoptosis” (Scientific Reports, 2015).

Molecular target: the molecule itself
Experiment: SEC-MALS; Superdex 200 HR 10/30 equilibrated in appropriate buffer, coupled to three-angle light scattering and refractive index detectors, 0.2 ml/min

B1: ARC CARD domain (amino acids 1-95), wild type (domain or fragment, human, UniProt O60936 1-95, looked up)
chain: MGNAQERPSETIDRERKRLVETLQADSGLLLDALLARGVLTGPEYEALDALPDAERRVRRLLLLVQGKGEAACQELLRCAQRTAGAPDPAWDWQH
notes: Apoptosis repressor with caspase recruiting domain (ARC), human (208 amino acids), CARD domain, amino acids 1-95; Expression and purification are said to be described in detail elsewhere; A selenomethionine-substituted form was made for SAD phasing; also called CARD domain of ARC; caspase recruiting domain of apoptosis repressor with CARD; not shown: His-tag, C-terminal, kept
stoichiometry N: 2
